Results on three molecules are retold here after US20130323819A1 (HERA PHARMACEUTICALS, published 2013).

Assay [1] addresses T1, SAI/II antigen (SAI/II adhesion of S. mutans) (Streptococcus mutans, UniProt P23504 39-1532).
T1 construct: Coated on ELISA plates at 1 ug/ml in PBS
T1 sequence (looked up): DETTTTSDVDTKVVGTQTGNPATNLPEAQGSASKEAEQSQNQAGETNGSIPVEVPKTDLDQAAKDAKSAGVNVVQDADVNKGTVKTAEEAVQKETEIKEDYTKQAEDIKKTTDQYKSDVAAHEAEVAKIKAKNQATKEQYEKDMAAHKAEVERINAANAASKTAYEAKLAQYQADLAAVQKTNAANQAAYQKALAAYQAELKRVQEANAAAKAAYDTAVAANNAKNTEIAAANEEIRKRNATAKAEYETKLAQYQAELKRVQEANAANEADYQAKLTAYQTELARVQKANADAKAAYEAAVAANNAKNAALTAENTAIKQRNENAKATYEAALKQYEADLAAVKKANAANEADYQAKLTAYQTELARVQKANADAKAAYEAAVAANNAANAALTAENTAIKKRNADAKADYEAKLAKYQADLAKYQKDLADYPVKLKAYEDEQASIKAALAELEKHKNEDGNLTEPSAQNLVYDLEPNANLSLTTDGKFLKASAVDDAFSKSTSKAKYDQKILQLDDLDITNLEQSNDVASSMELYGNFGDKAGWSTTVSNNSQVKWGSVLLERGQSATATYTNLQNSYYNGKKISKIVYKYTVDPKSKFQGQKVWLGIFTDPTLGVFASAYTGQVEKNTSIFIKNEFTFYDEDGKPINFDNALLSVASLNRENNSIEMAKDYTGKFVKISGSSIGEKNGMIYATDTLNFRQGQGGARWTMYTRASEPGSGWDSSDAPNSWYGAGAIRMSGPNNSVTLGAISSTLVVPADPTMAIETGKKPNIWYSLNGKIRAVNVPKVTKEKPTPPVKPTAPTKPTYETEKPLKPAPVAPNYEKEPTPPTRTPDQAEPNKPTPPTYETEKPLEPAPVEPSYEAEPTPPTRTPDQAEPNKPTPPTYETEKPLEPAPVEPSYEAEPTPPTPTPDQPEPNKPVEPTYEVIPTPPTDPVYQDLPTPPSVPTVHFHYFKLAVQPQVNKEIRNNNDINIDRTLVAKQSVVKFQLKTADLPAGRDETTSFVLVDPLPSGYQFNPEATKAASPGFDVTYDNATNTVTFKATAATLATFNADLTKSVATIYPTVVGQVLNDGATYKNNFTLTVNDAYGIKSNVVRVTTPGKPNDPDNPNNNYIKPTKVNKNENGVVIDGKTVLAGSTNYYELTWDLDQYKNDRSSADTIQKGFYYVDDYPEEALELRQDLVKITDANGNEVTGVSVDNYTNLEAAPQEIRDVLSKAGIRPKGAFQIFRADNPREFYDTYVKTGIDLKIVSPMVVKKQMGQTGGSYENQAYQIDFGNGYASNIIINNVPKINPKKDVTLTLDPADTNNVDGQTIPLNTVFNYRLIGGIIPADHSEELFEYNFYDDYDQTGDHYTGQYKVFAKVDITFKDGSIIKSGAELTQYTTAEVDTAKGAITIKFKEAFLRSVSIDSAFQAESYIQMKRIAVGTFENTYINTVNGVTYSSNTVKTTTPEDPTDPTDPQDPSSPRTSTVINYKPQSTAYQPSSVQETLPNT
Briefly: ELISA, SAI/II coated, culture supernatant; integrated strain against plasmid strain (same polypeptide, different amount).

Assay [2] addresses T1, SAI/II antigen (SAI/II adhesion of S. …). Nature of the assay: ELISA, SAI/II coated, whole bacterial cells; integrated strain against plasmid strain (same polypeptide, different amount). In general terms: ELISA stands for enzyme-linked immunosorbent assay.

B1: secreted and attached scFv anti-SAI/II (E-tagged) fused to the middle region and C-terminal domain of APF, produced by L. paracasei pAF400 (plasmid) or L. … (scFv)
scFv: AIVEGSAAQPAMDAQVKLQESGPDLVKPGASVKISCKASGYTFTDYNIHWVKQSRGKSLEWIGYIYPYNGNTYYNQKFKNKATLTVDNSSTSAYMELRSLTPEDSAVYYCATYFDYWGQGTTVTVSSGGGGSGGGGSGGGGSDIELTQSPAIMSASPGEKVTITCSASSSVSYMHWFQQKPGTSPKLWLYSTSNLASGVPARFSGSGSGTSYSLTISRMEAEDAATYYCHQRTSYPYTFGGGTKLEIKRAAAAGAPVPYPDPLEPRAAASEELYHTQAAVTQAPVQHQTQTENTNSAATTTAANNTNTQTTTSTVSGSEASAKEWIAGRESGGSYGASNGQYVGKYQLSASYLNGDYSAANQERVADNYVKGRYGSWTAAKAFWQANGWY
notes: Same polypeptide from the plasmid strain and the integrated strain (pEM171 = pEM76 with the expression cassette of pAF400); tested as culture supernatant and as whole cells (attached form); also called pEM171
Turning to B1, in assay [1], the “fold reduction in binding activity against the corresponding plasmid system (L. paracasei pAF400)” value was found to be 4 fold.

B2: secreted scFv anti-SAI/II (E-tagged) produced by L. paracasei pAF100 (plasmid) or L. paracasei EM182 (chromosomally integrated) (scFv)
scFv: AIVEGSAAQPAMDAQVKLQESGPDLVKPGASVKISCKASGYTFTDYNIHWVKQSRGKSLEWIGYIYPYNGNTYYNQKFKNKATLTVDNSSTSAYMELRSLTPEDSAVYYCATYFDYWGQGTTVTVSSGGGGSGGGGSGGGGSDIELTQSPAIMSASPGEKVTITCSASSSVSYMHWFQQKPGTSPKLWLYSTSNLASGVPARFSGSGSGTSYSLTISRMEAEDAATYYCHQRTSYPYTFGGGTKLEIKRAAAAGAPVPYPDPLEPRAA
notes: Same polypeptide from the plasmid strain and the integrated strain (pEM182 = pEM76 with the expression cassette of pAF100); tested as culture supernatant; also called pEM182
On to B2, for which the “fold reduction in binding activity against the corresponding plasmid system (L. paracasei pAF100)” value in assay [1] is at least 8 fold.

B3: surface anchored scFv anti-SAI/II (E-tagged) fused to the prtP anchor region, displayed on L. paracasei pAF900 (plasmid) or L. paracasei EM181 (chromosomally … (scFv)
scFv: AIVEGSAAQPAMDAQVKLQESGPDLVKPGASVKISCKASGYTFTDYNIHWVKQSRGKSLEWIGYIYPYNGNTYYNQKFKNKATLTVDNSSTSAYMELRSLTPEDSAVYYCATYFDYWGQGTTVTVSSGGGGSGGGGSGGGGSDIELTQSPAIMSASPGEKVTITCSASSSVSYMHWFQQKPGTSPKLWLYSTSNLASGVPARFSGSGSGTSYSLTISRMEAEDAATYYCHQRTSYPYTFGGGTKLEIKRAAAAGAPVPYPDPLEPRAAASKKTSLLNQLQSVKAALGTDLGNQTDPSTGKTFMAALDDLVAQAQAGTQTADQLQASLAKVLDAVLAKLAEGIKAATPAEVGNAKDAATGKTWYADIADTLTSGQASADASDKLAHLQALQSLKTKVAAAVEAAKTAGKGDDTSGTSDKGGGQGTPAPAPGDTGKNKGDEGSQPSSGGNIPTKPATTTSTSTDDTTDRNGQHTSGKGALPKTAETTERPAFGFLGVIVVSLMGVLGLKRKQREE
modifications: On the cells the chain is covalently linked to the cell wall through the prtP anchor (LPXTG-type motif, here LPKTA at residues 478-482).
notes: Same polypeptide from the plasmid strain and the integrated strain (pEM181 = pEM76 with the expression cassette of pAF900); tested as whole bacterial cells; (precursor, before any processing on anchoring to the cell wall); also called pEM181
In the case of B3, the “fold lower binding level than L. paracasei pAF900” value in assay [2] is under 16 fold.
